In paper doi:10.1101/2020.05.01.072124:
Read-outs that look alike come from different tables or passages of the source.

Tests used:
[1] = biological target: Recombinant MEK1 (immobilised in SPR) (human) (UniProt Q02750); assay: SPR
[2] = biological target: Recombinant MEK1 (immobilised in SPR) (human) (UniProt Q02750); assay: SPR; remark: listed apart in the source

- Kd [1]: 2.09 µM
- Kd [2]: 8 µM
Substance: HIS-CCS (copper chaperone for superoxide dismutase) (from UniProt O14618 1-274) (natural protein)
